# Laboratory results from patent US20220348617A1 (H LEE MOFFITT CANCER CENTER AND RESEARCH INSTITUTE, published 2022).
# B1: wildtype (WT) human DLL4 (ligand)
# chain: SGVFQLQLQEFINERGVLASGRPCEPGCRTFFRVCLKHFQAVVSPGPCTFGTVSTPVLGTNSFAVRDDSSGGGRNPLQLPFNFTWPGTFSLIIEAWHAPGDDLRPEALPPDALISKIAIQGSLAVGQNWLLDEQTSTLTRLRYSYRVICSDNYYGDNCSRLCKKRNDHFGHYVCQPDGNLSCLPGWTGEYCQQPICLSGCHEQNGYCSKPAECLCRPGWQGRLCNECIPHNGCRHGTCSTPWQCTCDEGWGGLFCDQDLNYCTHHSPCKNGATCSNSGQRSYTCTCRPGYTGVDCE
# notes: Soluble protein flowed over immobilised Notch in SPR; also called wild-type DLL4
# Legend:
# [1] = target: T1, Notch 3 EGF domains 5-12 (human, UniProt Q9UM47 197-505); experiment: SPR, Notch on streptavidin chip, DLL4 flowed
# T1 construct: domain: EGF domains 5-12; the other passages say only 'Notch 3'
# T1 sequence (looked up): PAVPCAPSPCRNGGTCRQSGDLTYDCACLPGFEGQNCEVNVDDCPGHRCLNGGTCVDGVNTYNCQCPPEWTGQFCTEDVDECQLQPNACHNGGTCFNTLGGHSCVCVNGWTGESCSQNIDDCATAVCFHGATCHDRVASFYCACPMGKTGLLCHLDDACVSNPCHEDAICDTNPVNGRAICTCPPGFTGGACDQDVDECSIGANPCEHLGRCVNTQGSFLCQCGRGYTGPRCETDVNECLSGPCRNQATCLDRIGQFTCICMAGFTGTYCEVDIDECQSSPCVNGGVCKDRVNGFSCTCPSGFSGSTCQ
# [2] = target: T2, Notch1 EGF domains 6-13 (human, UniProt P46531 218-526); experiment: SPR, Notch immobilised, DLL4 flowed
# T2 construct: domain: EGF domains 6-13; Immobilised on a streptavidin sensor chip; the other passages say only 'Notch 1'
# Method: Binding affinities between DLL4 variants and Notch receptor subtypes were determined by surface plasmon resonance (SPR) (FIG. 7). Notch1 EGF domains 6-13, Notch2, EGF domains 6-13, or Notch 3 EGF domains 5-12 were immobilized on a sensor chip and various concentrations of DLL4 ligands were injected over the surface. A co-culture assay was used to monitor the inhibition of Notch signaling by DLL4.v3 (FIG. 8). A fluorescent Notch1 reporter cell line (CHO^N1) was co-cultured with 293T cells expressing wild-type human DLL4 (293TDLL4) in 96-well plates to activate signaling. This value was normalized to 100% Notch1 activation. A reduction in Notch1 activation was observed upon the addition of increasing concentrations of DLL4.v3 (20 nM, 200 nM, 2000 nM) to the co-cultures.
binder,measurement,setting,value
B1,binding result,[1],binds
same,binding result,[2],binds
